Reference: US20220106398A1 (IGM BIOSCIENCES, published 2022)
Substitutions are numbered along the chain they refer to.

T1: human His6-GITR (human, UniProt Q9Y5U5 26-162)
T1 construct: His6-tagged recombinant protein; also called hGITR-His; human GITR-His
T1 sequence: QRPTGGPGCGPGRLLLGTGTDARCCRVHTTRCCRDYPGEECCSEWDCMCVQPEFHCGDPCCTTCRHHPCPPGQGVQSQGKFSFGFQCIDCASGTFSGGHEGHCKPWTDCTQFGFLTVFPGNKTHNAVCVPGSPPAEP

T2: mouse His6-GITR (mouse, UniProt O35714 20-153)
T2 construct: His6-tagged recombinant protein; also called mGITR-His; mouse GITR-His
T2 sequence: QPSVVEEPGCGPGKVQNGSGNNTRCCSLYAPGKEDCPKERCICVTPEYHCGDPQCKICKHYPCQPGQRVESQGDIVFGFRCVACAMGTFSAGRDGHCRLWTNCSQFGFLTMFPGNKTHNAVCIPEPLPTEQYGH

T3: cynomolgus monkey His6-GITR (cynomolgus monkey)
T3 construct: His6-tagged recombinant protein; also called cGITR-His; cyno GITR-His
T3 chain: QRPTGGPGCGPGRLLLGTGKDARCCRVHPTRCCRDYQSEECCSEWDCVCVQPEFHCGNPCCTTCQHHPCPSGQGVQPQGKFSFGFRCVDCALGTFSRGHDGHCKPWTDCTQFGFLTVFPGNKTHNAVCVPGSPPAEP

B1: GITR-Mab-3 scFv (scFv, V domains shown)
VH: QVQLVQSGAEVKKPGASVKVSCKASGYTFTSYDINWVRQAPGQGLEWMGWISGYNGNTNYAQKFQGRVTMTRDTSTSTVYMELSSLRSEDTAVYYCARSHEYYYYYGMDVWGQGTLVTVSS
VL: EIVMTQSPATLSVSPGERATLSCRASQSVSSSYLAWYQQKPGQAPRLLIYGASTRATGIPARFSGSGSGTEFTLTISSLQSEDFAVYYCQQYYTTPFTFGPGTKVDIK
notes: scFv in periplasmic extract, V5 tag
B2: GITR-Mab-5 scFv (scFv, V domains shown)
VH: EVQLLESGGGLVQPGGSLRLSCAASGFTFDAYAMHWVRQAPGKGLEWVSAIGTGGDTYYADSVKGRFTISRDNSKNTLYLQMNSLRAEDTAVYYCARDLYGSGSPQYYYYYGMDVWGQGTTVTVSS
VL: DIQMTQSPSSLSASVGDRVTITCRASQGIKNDLGWYQQKPGKAPKLLIYAASSLQSGVPSRFSGSGSGTDFTLTISSLQPEDFATYYCQQSYSVPFTFGQGTKVEIK
notes: as for B1
B3: GITR-Mab-6 scFv (scFv, V domains shown)
VH: QVQLVQSGAEVKKPGASVKVSCKASGYAFTAYYLHWVRQAPGQGLEWMGWMNPNSGNTGYAQKFQGRVTMTRDTSTSTVYMELSSLRSEDTAVYYCAREGWGYYDGGFDPWGQGTLVTVSS
VL: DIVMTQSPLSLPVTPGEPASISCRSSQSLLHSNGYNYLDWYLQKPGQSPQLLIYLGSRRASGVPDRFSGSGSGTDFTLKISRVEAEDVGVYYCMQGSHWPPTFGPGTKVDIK
notes: as for B1
B4: GITR-Mab-7 scFv (scFv, V domains shown)
VH: QVQLVQSGAEVKKPGASVKVSCKASGGTSSTYAVTWVRQAPGQGLEWMGVINPNDGSTTYAQNFQGRVTMTRDTSTSTVYMELSSLRSEDTAVYYCARWTPLFGVVIPDYYYYGMDVWGQGTLVTVSS
VL: B2 VL with R24Q, G28D, K30S, D32Y, G34N, V94T, F96P, K103R, V104L
notes: as for B1
B5: GITR-Mab-8 scFv (scFv, V domains shown)
VH: QVQLVQSGAEVKKPGASVKVSCKASGGTFSSYVISWVRQAPGQGLEWMGWMNPGSGNTGYAQKFQGRVTMTRDTSTSTVYMELSSLRSEDTAVYYCITDSEDDYWGQGTLVTVSS
VL: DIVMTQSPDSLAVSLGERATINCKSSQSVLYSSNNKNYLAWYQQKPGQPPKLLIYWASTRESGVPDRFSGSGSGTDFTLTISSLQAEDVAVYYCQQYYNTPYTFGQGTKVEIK
notes: as for B1
B6: GITR-Mab-17 scFv (scFv, V domains shown)
VH: QVQLVQSGAEVKKPGASVKVSCKASGYTFTSYGISWVRQAPGQGLEWMGWMNPNSGNTGYAQKFQGRVTMTRDTSTSTVYMELSSLRSEDTAVYYCARLGLWFGEYQYYFDYWGQGTLVTVSS
VL: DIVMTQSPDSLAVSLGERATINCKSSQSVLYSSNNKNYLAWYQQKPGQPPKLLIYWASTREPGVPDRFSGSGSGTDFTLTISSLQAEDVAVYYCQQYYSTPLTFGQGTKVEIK
notes: as for B1
B7: GITR-Mab-41 scFv (scFv, V domains shown)
VH: QVQLVQSGAEVKKPGASVKVSCKASGGSFSDYAVSWVRQAPGQGLEWMGWMNPNSGNTGYAQKFQGRVTMTRDTSTSTVYMELSSLRSEDTAVYYCARELVRDGYNFALDYWGQGTLVTVSS
VL: B2 VL with G28D, K30R, G34A, Y92F, V94T, P95F, F96Y, V104L
notes: as for B1
B8: GITR-Mab-42 scFv (scFv, V domains shown)
VH: QVQLVQSGAEVKKPGASVKVSCKASGYIFTNYWIQWVRQAPGQGLEWMGWINPHSGATKYAERFQGRVTMTRDTSTSTVYMELSSLRSEDTAVYYCARGLGSAFDIWGQGTMVTVSS
VL: not shown
notes: as for B1
B9: GITR-Mab-43 scFv (scFv, V domains shown)
VH: QVQLVQSGAEVKKPGASVKVSCKASGYTFTSHDIDWVRQAPGQGLEWMGWMNPNNGNTVYAQRFQGRVTMTRDTSTSTVYMELSSLRSEDTAVYYCARWKVYSGSYYGGAGYFDLWGRGTLVTVSS
VL: DIQMTQSPSSLSASVGDRVTITCRASQSISSYLNWYQQKPGKAPKLLIYRASHLEGGVPSRFSGSGSGTDFTLTISSLQPEDFATYYCQQADSLPLTFGQGTKVEIK
notes: as for B1
B10: GITR-Mab-44 scFv (scFv, V domains shown)
VH: QVQLVQSGAEVKKPGASVKVSCKASGYTFTSHDIDWVRQAPGQGLEWMGWINPSGDSTSYAQKFQGRVTMTRDTSTSTVYMELSSLRSEDTAVYYCARYYGGNSYAFDIWGQGTMVTVSS
VL: DIQMTQSPSSLSASVGDRVTITCRASESISPWVAWYQQKPGKAPKLLIYAASTLQSGVPSRFSGSGSGTDFTLTISSLQPEDFATYYCQQGTSTPYTFGQGTKLEIK
notes: as for B1
B11: GITR-Mab-46 scFv (scFv, V domains shown)
VH: QVQLVQSGAEVKKPGASVKVSCKASGGSFSNYAINWVRQAPGQGLEWMGWMNPYSGNTGYAQKFQGRVTMTRDTSTSTVYMELSSLRSEDTAVYYCAREITANYYYGMDVWGQGTKVTVSS
VL: DIQMTQSPSSLSASVGDRVTITCQASQDISNYLNWYQQKPGKAPKLLIYEASVLESGVPSRFSGSGSGTDFTLTISSLQPEDFATYYCQQSYTTQYTFGQGTKVEIK
notes: as for B1
B12: GITR-Mab-47 scFv (scFv, V domains shown)
VH: QVQLVQSGAEVKKPGSSVKVSCKASGGTFSTYAINWVRQAPGQGLEWMGIINPTDGDTSYAQKFQGRVTITADESTSTAYMELSSLRSEDTAVYYCARAAYYYYGMDVWGQGTTVTVSS
VL: not shown
notes: as for B1
B13: GITR-Mab-48 scFv (scFv, V domains shown)
VH: QVQLVQSGAEVKKPGASVKVSCKASGYSFTSHDIDWVRQAPGQGLEWMGWINPNSGGTNYAQKFQGRVTMTRDTSTSTVYMELSSLRSEDTAVYYCARIRGYYGSGSYHDAFDIWGQGTTVTVSS
VL: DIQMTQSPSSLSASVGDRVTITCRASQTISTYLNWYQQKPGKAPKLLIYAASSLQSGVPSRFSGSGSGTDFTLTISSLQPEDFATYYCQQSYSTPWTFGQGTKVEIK
notes: as for B1
B14: GITR-Mab-23 scFv (scFv, V domains shown)
VH: EVQLLESGGGLVQPGGSLRLSCAASGFPFSTYAIHWVRQAPGKGLEWVSAISGSGGSTYYADSVKGRFTISRDNSKNTLYLQMNSLRAEDTAVYYCAGPDWYFDLWGRGTLVTVSS
VL: B10 VL with E27Q, S28A, P31N, W32S, V33L, S56R, G91Y, T92Y
notes: as for B1
B15: GITR-Mab-25 scFv (scFv, V domains shown)
VH: QVQLVQSGAEVKKPGASVKVSCKASGGTFSSYAISWVRQAPGQGLEWMGWVSGYNGNANYAQKFQGRVTMTRDTSTSTVYMELSSLRSEDTAVYYCARDRVESGYSYHDAFDIWGQGTMVTVSS
VL: B2 VL with A25T, G28S, K30R, N31R, D32Y, G34N, V94I, F96W, Q100P, E105D
notes: as for B1
B16: GITR-Mab-26 scFv (scFv, V domains shown)
VH: QVQLVQSGAEVKKPGASVKVSCKASGYTFTSYGISWVRQAPGQGLEWMGWMNPNNGNTVYAQKFQGRVTMTRDTSTSTVYMELSSLRSEDTAVYYCAKDSDWYGAFDIWGQGTMVTVSS
VL: B10 VL with R24Q, E27Q, P31R, V33L, A50S, T53S, G91S, T92Y, Y96W
notes: as for B1

Molecular target: T1, human His6-GITR
Assay: CARTERRA LSA, scFv periplasmic extract

Binder	Kd
B1	10.5 nM
B2	8.3 nM
B3	0.1 nM
B4	11.5 nM
B5	49.6 nM
B6	24.5 nM

Molecular target: T1, human His6-GITR
Assay: ELISA, scFv periplasmic extract on coated His6-GITR
Description: (§1) The SuperHuman-2.0 scFv Antibody Library (available from Distributed Bio, South San Francisco, Calif.) was used to perform selection with human, cynomolgus or mouse GITR proteins. Selected phage clones from overnight growth were inoculated into wells in 96 well deep well plates containing 1 mL of medium. scFv expression was induced by addition of IPTG (Teknova) to a final concentration of 1 mM. Plates were grown overnight after induction. To prepare periplasmic extracts (PPE), the plates containing the phage clones were centrifuged at 2500 rpm for 10 min, the supernatant discarded and then pellets treated with 75 μL of cold periplasmic extract buffer with appropriate concentration of protease inhibitors (Complete Mini, EDTA-free -Roche Applied Biosciences—Cat No 1836170). After shaking at room temperature for 10 min, 225 μL of cold ddH2O with added protease inhibitor (1 tablet/50 mL) was added per well and mixed by pipetting up and down. PPE extraction was completed by incubation at room temperature for an additional 1 hr. The plates were then centrifuged at 4000 rpm for 20 minutes and 200 μL of PPE supernatant was collected from each well and transferred to a new plate which was then blocked with equal volume of 4% milk (2% final) to prepare blocked PPE extracts. In the meantime, Maxisorp plates (Nunc 442404) coated with relevant antigen (human, mouse or cynomolgus monkey His6-GITR) at 50 μl/well of 1 μg/mL antigen or 2% BSA in PBS as control were prepared for ELISA analyses. Next, 50 μL of each blocked PPE extract was transferred to the pre-blocked ELISA plates coated with the relevant antigens. After incubation and washing 3× with PBS, 50 μL of anti-V5 tag antibody (tag included in the phage display constructs, Invitrogen Cat No R960-25) at 1:5000 dilution in 2% milk was added and the plates were incubated for 1 hr. […] After further washing 3× with PBST, 50 μl/well of TMB substrate was added and the plates were developed until positive controls were visible. The reaction was stopped with 50 μl/well of 2N H2SO4. Plates were read at 450 nm to determine ELISA signal from bound PPE derived scFv.

Binder	hGITR-His/BKG
B1	12.1 fold over background
B7	9.9 fold over background
B8	5.5 fold over background
B9	11.7 fold over background
B2	16.3 fold over background
B10	12.4 fold over background
B11	4 fold over background
B12	13 fold over background
B13	9.4 fold over background
B3	35.8 fold over background
B4	16.4 fold over background
B5	9.6 fold over background
B6	18.9 fold over background
B14	35.6 fold over background
B15	22.2 fold over background
B16	12.7 fold over background

Molecular target: T2, mouse His6-GITR
Assay: as above
Description: as §1

Binder	mGITR-His/BKG
B1	1 fold over background
B7	10.4 fold over background
B8	1 fold over background
B9	14.6 fold over background
B2	1.2 fold over background
B10	15.6 fold over background
B11	6.5 fold over background
B12	24.9 fold over background
B13	9.5 fold over background
B3	1 fold over background
B4	1 fold over background
B5	1.4 fold over background
B6	1.1 fold over background
B14	0.9 fold over background
B15	1.1 fold over background
B16	1.1 fold over background

Molecular target: T3, cynomolgus monkey His6-GITR
Assay: as above
Description: as §1

Binder	cGITR-His/BKG
B1	11.1 fold over background
B7	10.3 fold over background
B8	4.2 fold over background
B9	12 fold over background
B2	8 fold over background
B10	12.3 fold over background
B11	5.3 fold over background
B12	21 fold over background
B13	8.9 fold over background
B3	7.5 fold over background
B4	9 fold over background
B5	16.1 fold over background
B14	23.2 fold over background
B15	1.1 fold over background
B16	0.8 fold over background
